Measured values: the supplement of paper PMC9112550, “Optimization of the antimicrobial peptide Bac7 by deep mutational scanning” (BMC Biology, 2022)

Each sequence was assayed on Escherichia coli TOP10 (assay: shrunken log2 fold change of peptide-encoding DNA abundance (4.5 h post-induction vs induction); higher = less antimicrobial activity (less host growth inhibition)). Conditions: time post-induction: 4.5 h; library: site-saturation at positions 5, 18, 19, 20.
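Further: peptides expressed intracellularly from a pBAD plasmid library in pooled LB shake-flask culture, induced with 0.3% L-arabinose, DNA abundance read by NGS, three biological replicates, DESeq2 with apeglm shrinkage.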

Row | Sequence | shrunken log2 fold change
1 | RRIRKRPPRLPRPRPRPSPFPRP | 0.0443
2 | RRIRMRPPRLPRPRPRPFNAPRP | 0.00535
3 | RRIRHRPPRLPRPRPRPCYAPRP | -0.291
4 | RRIRCRPPRLPRPRPRPACGPRP | 0.323
5 | RRIRPRPPRLPRPRPRPDCRPRP | -0.0347
6 | RRIRDRPPRLPRPRPRPFIMPRP | -0.147
7 | RRIRVRPPRLPRPRPRPEDLPRP | 0.084
8 | RRIRRRPPRLPRPRPRPKHIPRP | 0.0894
9 | RRIRHRPPRLPRPRPRPPQSPRP | 0.193
10 | RRIRQRPPRLPRPRPRPSEYPRP | -0.44
11 | RRIRFRPPRLPRPRPRPMCEPRP | -0.236
12 | RRIRQRPPRLPRPRPRPRWWPRP | 0.417
13 | RRIRSRPPRLPRPRPRPRFEPRP | 0.402
14 | RRIRHRPPRLPRPRPRPQHNPRP | 0.22
15 | RRIRPRPPRLPRPRPRPEGVPRP | 0.103
16 | RRIRFRPPRLPRPRPRPACPPRP | 0.12
17 | RRIRHRPPRLPRPRPRPALMPRP | -0.0655
18 | RRIRSRPPRLPRPRPRPTLLPRP | 0.227
19 | RRIRARPPRLPRPRPRPIVWPRP | 0.393
20 | RRIRWRPPRLPRPRPRPIWSPRP | 0.629
21 | RRIRVRPPRLPRPRPRPPRLPRP | 0.294
22 | RRIRARPPRLPRPRPRPAVCPRP | 0.442
23 | RRIRERPPRLPRPRPRPFGSPRP | 0.0942
24 | RRIRYRPPRLPRPRPRPAWGPRP | 0.0852
25 | RRIRIRPPRLPRPRPRPFFPPRP | -0.264

Row | Sequence | shrunken log2 fold change
26 | RRIRIRPPRLPRPRPRPPGWPRP | 0.527
27 | RRIRGRPPRLPRPRPRPNILPRP | 0.199
28 | RRIRWRPPRLPRPRPRPNQMPRP | -0.0159
29 | RRIRERPPRLPRPRPRPGYFPRP | -0.0348
30 | RRIRGRPPRLPRPRPRPRHRPRP | 0.401
31 | RRIRLRPPRLPRPRPRPVQWPRP | 0.288
32 | RRIRRRPPRLPRPRPRPEQYPRP | 0.17
33 | RRIRLRPPRLPRPRPRPNCGPRP | -0.0908
34 | RRIRKRPPRLPRPRPRPWAIPRP | 0.14
35 | RRIRYRPPRLPRPRPRPAITPRP | -0.933
36 | RRIRSRPPRLPRPRPRPVADPRP | 0.0874
37 | RRIRRRPPRLPRPRPRPKFWPRP | 0.278
38 | RRIRCRPPRLPRPRPRPQDVPRP | -0.176
39 | RRIRTRPPRLPRPRPRPTMPPRP | -0.0706
40 | RRIRWRPPRLPRPRPRPYIEPRP | -0.629
41 | RRIRMRPPRLPRPRPRPVCLPRP | 0.174
42 | RRIRERPPRLPRPRPRPQVVPRP | -0.42
43 | RRIRGRPPRLPRPRPRPRVFPRP | 1.02
44 | RRIRTRPPRLPRPRPRPSFMPRP | -0.412
45 | RRIRGRPPRLPRPRPRPTMVPRP | 0.786
46 | RRIRNRPPRLPRPRPRPRSCPRP | 0.763
47 | RRIRLRPPRLPRPRPRPCSSPRP | -0.157
48 | RRIRPRPPRLPRPRPRPRWCPRP | 0.171
49 | RRIRVRPPRLPRPRPRPPHFPRP | 0.696
50 | RRIRVRPPRLPRPRPRPEANPRP | -0.141

Row | Sequence | shrunken log2 fold change
51 | RRIRDRPPRLPRPRPRPDQQPRP | 0.0408
52 | RRIRLRPPRLPRPRPRPEELPRP | 0.068
53 | RRIRTRPPRLPRPRPRPHEPPRP | -0.197
54 | RRIRIRPPRLPRPRPRPWRMPRP | -0.473
55 | RRIRYRPPRLPRPRPRPKPTPRP | 0.278
56 | RRIRTRPPRLPRPRPRPMNEPRP | -0.172
57 | RRIRPRPPRLPRPRPRPDNHPRP | -0.521
58 | RRIRDRPPRLPRPRPRPWSLPRP | 0.0709
59 | RRIRSRPPRLPRPRPRPSWNPRP | -0.342
60 | RRIRDRPPRLPRPRPRPYNGPRP | -0.0516
61 | RRIRMRPPRLPRPRPRPHLVPRP | -0.0163
62 | RRIRYRPPRLPRPRPRPCDWPRP | -0.0122
63 | RRIRGRPPRLPRPRPRPESQPRP | 1.57
64 | RRIRQRPPRLPRPRPRPDRFPRP | 0.0204
65 | RRIRRRPPRLPRPRPRPRGSPRP | 0.729
66 | RRIRGRPPRLPRPRPRPLAQPRP | 0.888
67 | RRIRVRPPRLPRPRPRPPIMPRP | -0.486
68 | RRIRMRPPRLPRPRPRPIDQPRP | 0.0164
69 | RRIRWRPPRLPRPRPRPERCPRP | 0.449
70 | RRIRFRPPRLPRPRPRPEIKPRP | 0.058
71 | RRIRVRPPRLPRPRPRPNYVPRP | -0.254
72 | RRIRERPPRLPRPRPRPFGMPRP | -0.0947
73 | RRIRHRPPRLPRPRPRPTYIPRP | -0.573
74 | RRIRWRPPRLPRPRPRPQDAPRP | -0.0395
75 | RRIRDRPPRLPRPRPRPVLAPRP | 0.805

Row | Sequence | shrunken log2 fold change
76 | RRIRKRPPRLPRPRPRPMSMPRP | 0.0472
77 | RRIRPRPPRLPRPRPRPGAHPRP | 0.355
78 | RRIRFRPPRLPRPRPRPDMDPRP | -0.107
79 | RRIRTRPPRLPRPRPRPFWFPRP | 0.526
80 | RRIRSRPPRLPRPRPRPMMPPRP | -0.0787
81 | RRIRWRPPRLPRPRPRPKTCPRP | 0.174
82 | RRIRQRPPRLPRPRPRPAFEPRP | -0.0876
83 | RRIRCRPPRLPRPRPRPFDPPRP | -0.0744
84 | RRIRHRPPRLPRPRPRPYLRPRP | -0.173
85 | RRIRWRPPRLPRPRPRPPDHPRP | 0.594
86 | RRIRARPPRLPRPRPRPLIMPRP | -0.144
87 | RRIRARPPRLPRPRPRPEHHPRP | 0.132
88 | RRIRVRPPRLPRPRPRPLRYPRP | -0.142
89 | RRIRIRPPRLPRPRPRPGIKPRP | -0.0876
90 | RRIRERPPRLPRPRPRPFEWPRP | -0.132
91 | RRIRSRPPRLPRPRPRPYMKPRP | -0.421
92 | RRIRTRPPRLPRPRPRPRNMPRP | -0.493
93 | RRIRDRPPRLPRPRPRPVRQPRP | 0.000541
94 | RRIRERPPRLPRPRPRPHSDPRP | -0.0192
95 | RRIRPRPPRLPRPRPRPQLHPRP | -0.0604
96 | RRIRCRPPRLPRPRPRPYDHPRP | -0.797
97 | RRIRPRPPRLPRPRPRPASQPRP | 0.0417
98 | RRIRGRPPRLPRPRPRPFEEPRP | 0.231
99 | RRIRDRPPRLPRPRPRPRKEPRP | -0.00977
100 | RRIRVRPPRLPRPRPRPMDMPRP | -0.946

Row | Sequence | shrunken log2 fold change
101 | RRIRFRPPRLPRPRPRPDVIPRP | 0.0834
102 | RRIRIRPPRLPRPRPRPRQGPRP | 0.0734
103 | RRIRGRPPRLPRPRPRPVSKPRP | 0.276
104 | RRIRMRPPRLPRPRPRPLDCPRP | 0.262
105 | RRIRKRPPRLPRPRPRPAQFPRP | 0.258
106 | RRIRQRPPRLPRPRPRPPSTPRP | 0.179
107 | RRIRKRPPRLPRPRPRPYMWPRP | -0.0774
108 | RRIRGRPPRLPRPRPRPDSTPRP | 0.213
109 | RRIRMRPPRLPRPRPRPLEVPRP | 0.405
110 | RRIRLRPPRLPRPRPRPVQFPRP | -0.38
111 | RRIRYRPPRLPRPRPRPYKSPRP | 0.0233
112 | RRIRDRPPRLPRPRPRPPPHPRP | 0.623
113 | RRIRPRPPRLPRPRPRPLTLPRP | 0.121
114 | RRIRNRPPRLPRPRPRPRQMPRP | 0.0821
115 | RRIRMRPPRLPRPRPRPSYNPRP | -0.808
116 | RRIRMRPPRLPRPRPRPFVSPRP | -0.0194
117 | RRIRQRPPRLPRPRPRPDCMPRP | 0.00805
118 | RRIRIRPPRLPRPRPRPFRPPRP | 0.023
119 | RRIRQRPPRLPRPRPRPYHEPRP | -0.288
120 | RRIRDRPPRLPRPRPRPCGEPRP | 0.488
121 | RRIRYRPPRLPRPRPRPYRFPRP | -0.168
122 | RRIRYRPPRLPRPRPRPQVKPRP | -0.318
123 | RRIRDRPPRLPRPRPRPKYHPRP | -0.412
124 | RRIRYRPPRLPRPRPRPPAQPRP | 0.23
125 | RRIRWRPPRLPRPRPRPCGFPRP | 0.395

Row | Sequence | shrunken log2 fold change
126 | RRIRYRPPRLPRPRPRPSFPPRP | -0.831
127 | RRIRWRPPRLPRPRPRPNVKPRP | -0.278
128 | RRIRFRPPRLPRPRPRPHKFPRP | -0.5
129 | RRIRWRPPRLPRPRPRPEDQPRP | 0.475
130 | RRIRMRPPRLPRPRPRPRPWPRP | 0.996
131 | RRIRSRPPRLPRPRPRPCFPPRP | -0.747
132 | RRIRPRPPRLPRPRPRPPWMPRP | 0.407
133 | RRIRSRPPRLPRPRPRPCYTPRP | -0.0751
134 | RRIRFRPPRLPRPRPRPMKNPRP | -0.0862
135 | RRIRSRPPRLPRPRPRPTRAPRP | 0.738
136 | RRIRWRPPRLPRPRPRPKKHPRP | 0.293
137 | RRIRNRPPRLPRPRPRPVNDPRP | -0.15
138 | RRIRNRPPRLPRPRPRPYAIPRP | -0.105
139 | RRIRCRPPRLPRPRPRPPYNPRP | -0.618
140 | RRIRDRPPRLPRPRPRPGSWPRP | 0.817
141 | RRIRWRPPRLPRPRPRPAMEPRP | 0.348
142 | RRIRWRPPRLPRPRPRPRGHPRP | 0.404
143 | RRIRNRPPRLPRPRPRPIRNPRP | -0.422
144 | RRIRFRPPRLPRPRPRPNRPPRP | -0.0705
145 | RRIRNRPPRLPRPRPRPLGIPRP | -0.169
146 | RRIRHRPPRLPRPRPRPDCTPRP | 0.0402
147 | RRIRSRPPRLPRPRPRPMDWPRP | -0.0477
148 | RRIRMRPPRLPRPRPRPEHNPRP | 0.465
149 | RRIRHRPPRLPRPRPRPPCIPRP | 0.00475
150 | RRIRQRPPRLPRPRPRPMENPRP | -0.0199
